According to patent US20210238569A1:

Legend:
[1] = molecular target: protease-activated RNA polymerase (PA-RNAP) including the HCV protease substrate (UniProt P00806)
[2] = test system: TEV protease wild-type substrate sequence ENLYFQSA
[3] = molecular target: protease-activated RNA polymerase (PA-RNAP) including the TEV protease substrate (UniProt P00806)
[4] = test system: target substrate sequence ENLYFESA

Sequence of protease-activated RNA polymerase (PA-RNAP) including the TEV protease substrate (P00806 whole entry, looked up): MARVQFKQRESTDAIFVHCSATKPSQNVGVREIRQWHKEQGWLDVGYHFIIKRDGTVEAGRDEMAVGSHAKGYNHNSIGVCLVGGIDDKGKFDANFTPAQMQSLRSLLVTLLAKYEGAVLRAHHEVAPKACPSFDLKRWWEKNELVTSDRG
Sequence of protease-activated RNA polymerase (PA-RNAP) including the HCV protease substrate (P00806 whole entry, looked up): as above

Substance	Western blot of PA-RNAP sensor activation (proteolysis) [1]	cleavage of substrate sequence [2]	Western blot of PA-RNAP sensor activation (proteolysis) [3]	cleavage of substrate sequence [4]
hepatitis C virus (HCV) protease, constitutively active construct that includes the NS4a cofactor peptide	the PA-RNAP sensor is proteolyzed to a smaller band of anticipated molecular weight only in the presence of a cognate protease that can cleave the peptide sequence in each PA-RNAP linker	–	–	–
tobacco etch virus (TEV) protease, expressed as MBP-TEV fusion protein	–	Wild-type TEV protease cleaves the substrate sequence ENLYFQSA (SEQ ID NO: 24)	the PA-RNAP sensor is proteolyzed to a smaller band of anticipated molecular weight only in the presence of a cognate protease that can cleave the peptide sequence in each PA-RNAP linker	does not cleave the target substrate sequence ENLYFESA (SEQ ID NO: 25)
